Experimental data from PMC3102659.

Key:
[1] = biological target: human blood coagulation factor X (FX) (human); experiment: SPR; biotinylated hypersulfated heparin (HS) on a streptavidin CM4 chip, BIAcore3000; hexon or virions injected alone or mixed with FX or FXGL; read-out is the FX-bridged binding to HS; HBS (10 mM HEPES, 150 mM NaCl, pH 7.4) with 3 mM CaCl2, 5 µl/min
[2] = biological target: human blood coagulation factor X (FX) (human)
[3] = biological target: human blood coagulation factor X (FX) (human); remark: listed apart in the source
[4] = biological target: immobilized HS (hypersulfated heparin), bridged by FX (m1); experiment: SPR; settings: virion + FX at 8 µg/ml (FXmax); HS immobilized on chip; read at end of injection (~285 s); parent: est. 2900; read off a plot
[5] = biological target: TTAT mutant fiber of HAdV5 (KKTK motif of the shaft mutated) (human adenovirus serotype 5) (UniProt P11818); experiment: not stated; data not shown: folding of TTAT mutant fibers as trimers

Row | Substance | cell-bound virions on CHO-K1 cells (qPCR of viral genomes), MOI 5,000, 1 h at 4°C, increase with FX 8 µg/ml over no FX [2] | response [4] | also measured
1 | HAdV5F35 virion (serotype 35 fiber-pseudotyped HAdV5 vector) (from UniProt P04133 1-952; P12538 1-571) (complex) | 10 fold |  | copies of FX per virion at maximum FX-mediated binding to HS (copies of FX per virion) [1]: 480
2 | HAdV5F^TTAT virion (HAdV5 vector mutated in the KKTK motif of the fiber shaft) (from UniProt P04133 1-952; P12538 1-571; P11818 1-581) (complex) |  |  | enhancement of transduction efficiency of CHO-K1 cells, MOI 2,500, increasing doses of FX up to FXmax (8 µg/ml) [3]: 65 fold
3 | HAdV5wt virion (replication-deficient HAdV5 vector with nonmodified capsid) (from UniProt P04133 1-952; P12538 1-571; P11818 1-581) (complex) | 5 to 6 fold |  | 
4 | HAdV5wt virion (replication-deficient HAdV5 vector with nonmodified capsid) (from UniProt P04133;P12538;P11818) fiber:K91T; fiber:K92T; fiber:T93A; fiber:K94T |  | 2400 RU | 
5 | HAdV5wt virion (replication-deficient HAdV5 vector with nonmodified capsid) (from UniProt P04133;P12538;P11818) penton base:R340E |  | 2500 RU | 
6 | TTAT mutant fiber of HAdV5 (KKTK motif of the shaft mutated) (from UniProt P11818 1-581) (natural protein) |  |  | stoichiometry N [5]: 3
